From patent US20230304012A1

Experiments:
[1] = molecular target: full length MuSK (wild type mouse, on primary myotubes) (mouse) (UniProt Q61006); assay: cell-based or functional assay
[2] = molecular target: ΔIg3-MuSK (mouse, on primary myotubes from ΔIg3-MuSK mice) (mouse) (UniProt Q61006); assay: cell-based or functional assay

Substance: BMP4 (ligand)
- Wnt11 transcription (qRT-PCR), fold increase after 25 ng/mL BMP4 for 2 hours in primary myotubes [1]: 5.8 fold
- Wnt11 transcription (qRT-PCR), fold increase after 25 ng/mL BMP4 for 2 hours in primary myotubes [2]: 2.6 fold
